In data set [1] the target is T1, CCA1 (Arabidopsis thaliana, UniProt P92973 P92973:1-608). Nature of the data set: EMSA; 10 fmol rCCA1 and 10 fmol probe; cold competitor 5-50x. Particulars: tags: full-length cDNA in pET300/NT-DEST, E. coli Rosetta-gami B; label: 32P. The text has this:
(§1) The cDNA was cloned into pDONR221 and validated by sequencing. The resulting insert was transferred by recombination into pET300/NT-DEST expression vector (Invitrogen Corp., Carlsbad, Calif.) and expressed in Escherichia coli Rosetta-gami B competent cells (Novagen, Madison, Wis.). Recombinant CCA1 protein was purified and subjected to EMSA in 6% native polyacrylamide gels using rCCA1 (10 fmoles) and ³²P-labeled double-stranded oligonucleotides (10 fmoles, Table 5). The cold probe (Cp) concentrations were 0 (-), 50 (5×), 100 (10×), 200 (20×), and 500 (50×) fmoles, respectively, according to a published protocol available at http://www.natureprotocols.com/2009/01/08/the_electrophoretic_mobility_s_{—}1.php.

Data set [2] concerns the target T1, CCA1. Nature of the data set: EMSA; 10 fmol rCCA1 and 10 fmol probe; cold competitor 5-50x; text prints PORE for PORB. Particulars: tags: full-length cDNA in pET300/NT-DEST, E. coli Rosetta-gami B; label: 32P.
Excerpt: as §1

We go through five molecules from patent US20110271397, “MOLECULAR CLOCK MECHANISM OF HYBRID VIGOR” (published 2011).

T1 sequence (P92973 whole entry, one chain of several): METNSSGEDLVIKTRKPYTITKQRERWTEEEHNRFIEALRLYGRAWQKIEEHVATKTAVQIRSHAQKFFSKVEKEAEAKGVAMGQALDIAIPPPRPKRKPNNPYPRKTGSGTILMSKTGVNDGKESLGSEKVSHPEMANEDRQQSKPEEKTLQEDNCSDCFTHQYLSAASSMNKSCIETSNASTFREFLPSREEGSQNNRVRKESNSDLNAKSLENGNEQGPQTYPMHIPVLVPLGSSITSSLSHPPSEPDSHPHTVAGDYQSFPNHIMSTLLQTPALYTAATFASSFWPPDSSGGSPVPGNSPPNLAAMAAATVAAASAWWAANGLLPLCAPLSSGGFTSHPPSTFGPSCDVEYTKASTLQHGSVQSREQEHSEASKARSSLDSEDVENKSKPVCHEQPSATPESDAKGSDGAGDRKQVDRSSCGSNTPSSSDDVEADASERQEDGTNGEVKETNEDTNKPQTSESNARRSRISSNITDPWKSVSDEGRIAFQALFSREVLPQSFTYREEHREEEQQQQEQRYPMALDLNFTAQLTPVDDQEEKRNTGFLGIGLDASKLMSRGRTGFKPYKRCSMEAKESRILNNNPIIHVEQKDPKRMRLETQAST

B1: DPE1 promoter EE oligo (dsDNA)
DNA 1: AGAGCAACAAAATATCTCGACTGTT
DNA 2: AACAGTCGAGATATTTTGTTGCTCT
Turning to B1, the binding result in data set [1] is listed as “binds”.

B2: PORB promoter EE oligo (dsDNA)
DNA 1: ATTAAAATAAAATATCTAAGGAGAA
DNA 2: TTCTCCTTAGATATTTTATTTTAAT
As for B2, the binding result in data set [2] is “binds”.

B3: GWD3 promoter EE oligo (dsDNA)
DNA 1: CACAAACAAAAAAATCTCTTATCAC
DNA 2: GTGATAAGAGATTTTTTTGTTTGTG
As to B3, in data set [1], the binding result is given as “binds”.

B4: TOC1 promoter EE oligo (dsDNA)
DNA 1: ACACAAAAAAAATATCTAATCACAG
DNA 2: CTGTGATTAGATATTTTTTTTGTGT
Turning to B4, the binding result in data set [1] is “binds”.

B5: PORA promoter EE oligo (dsDNA)
DNA 1: TATACATTAAAATATCTACTGACAG
DNA 2: CTGTCAGTAGATATTTTAATGTATA
Take B5: in data set [1], the binding result was “binds”.
